Experimental data from patent US20240287481A1, “POLYMERASES FOR EFFICIENT INCORPORATION OF NUCLEOTIDES WITH 3'-PHOSPHATE AND OTHER 3'-TERMINATORS” (MGI Tech Co., Ltd., priority 2021, published 2024).

B1: 12D6: rabbit monoclonal dTTP-3P antibody, SEQ ID NO: 51 and 52 (protein)
chain 1: METGLRWLLLVAVLKGVQCQSLEESGGRLVTPGTPLTLTCTVSGIDLSSYTITWVRQAPGKGLEWIGYIYVHDGATYYANWAKGRFTISRTSSTTVDLKMTSLTTEDTATYFCASGGGTTYYRIWGPGTLVTVSSGQPKAPSVFPLAPCCGDTPSSTVTLGCLVKGYLPEPVTVTWNSGTLTNGVRTFPSVRQSSGLYSLSSVVSVTSSSQPVTCNVAHPATNTKVDKTVAPSTCSKPMCPPPELPGGPSVFIFPPKPKDTLMISRTPEVTCVVVDVSQDDPEVQFTWYINNEQVRTARPPLREQQFNSTIRVVSTLPIAHQDWLRGKEFKCKVHNKALPAPIEKTISKARGQPLEPKVYTMGPPREELSSRSVSLTCMINGFYPSDISVEWEKNGKAEDNYKTTPTVLDSDGSYFLYSKLSVPTSEWQRGDVFTCSVMHEALHNHYTQKSISRSPGK
chain 2: MDTRAPTQLLGLLLLWLPGATFAQLLTQTPPSVSAPVGGTVTINCQSSQSVYGHNRLSWYQQKPGQPPKLLIYYTSTLASGVPSRFKGSGSGTQFTLTISDLECDDAATYYCAGGYNGNIYAFGGGTEVVVKGDPVAPTVLIFPPAADQVATGTVTIVCVANKYFPDVTVTWEVDGTTQTTGIENSKTPQNSADCTYNLSSTLTLTSTQYNSHKEYTCKVTQGTTSVVQSFNRGDC
modifications: dTTP-3P
B2: 18B10: rabbit monoclonal dATP-3P antibody, SEQ ID NO: 39 and 40 (protein)
chain 1: METGLRWLLLVAVLKGVQCQSVEESGGRLVTPGTPLTLTCTVSGIDLSSYAMGWVRQAPGKGLEWIGMISRRGTSYYASWARGRFTISKTSTTVDLKITSPTTEETATYFCARATYDDYTDLNLWGQGTLVTVSSGQPKAPSVFPLAPCCGDTPSSTVTLGCLVKGYLPEPVTVTWNSGTLTNGVRTFPSVRQSSGLYSLSSVVSVTSSSQPVTCNVAHPATNTKVDKTVAPSTCSKPMCPPPELPGGPSVFIFPPKPKDTLMISRTPEVTCVVVDVSQDDPEVQFTWYINNEQVRTARPPLREQQFNSTIRVVSTLPIAHQDWLRGKEFKCKVHNKALPAPIEKTISKARGQPLEPKVYTMGPPREELSSRSVSLTCMINGFYPSDISVEWEKNGKAEDNYKTTPTVLDSDGSYFLYSKLSVPTSEWQRGDVFTCSVMHEALHNHYTQKSISRSPGK
chain 2: MDTRAPTQLLGLLLLWLPGATFAQVLTQTPSSVSAAVGGTVTINCQSSQSVYNNNLLSWYQQKPGQPPKLLIYKTSSLASGVPSRFSGSGSGTQFTLTISGVQCDDAATYYCLGGYYSGSGWYSTFGGGTEVVVKGDPVAPTVLIFPPSADLVATGTVTIVCVANKYFPDVTVTWEVDGTTQTTGIENSKTPQNSADCTYNLSSTLTLTSTQYNSHKEYTCKVTQGTTSVVQSFNRGDC
modifications: dATP-3P
B3: Taq 475: Taq polymerase variant E520G, K540I, L616A (protein, UniProt P19821 1-832, looked up, variant E520G K540I L616A)
DNA polymerase I, thermostable: MRGMLPLFEPKGRVLLVDGHHLAYRTFHALKGLTTSRGEPVQAVYGFAKSLLKALKEDGDAVIVVFDAKAPSFRHEAYGGYKAGRAPTPEDFPRQLALIKELVDLLGLARLEVPGYEADDVLASLAKKAEKEGYEVRILTADKDLYQLLSDRIHVLHPEGYLITPAWLWEKYGLRPDQWADYRALTGDESDNLPGVKGIGEKTARKLLEEWGSLEALLKNLDRLKPAIREKILAHMDDLKLSWDLAKVRTDLPLEVDFAKRREPDRERLRAFLERLEFGSLLHEFGLLESPKALEEAPWPPPEGAFVGFVLSRKEPMWADLLALAAARGGRVHRAPEPYKALRDLKEARGLLAKDLSVLALREGLGLPPGDDPMLLAYLLDPSNTTPEGVARRYGGEWTEEAGERAALSERLFANLWGRLEGEERLLWLYREVERPLSAVLAHMEATGVRLDVAYLRALSLEVAEEIARLEAEVFRLAGHPFNLNSRDQLERVLFDELGLPAIGKTEKTGKRSTSAAVLGALREAHPIVEKILQYRELTILKSTYIDPLPDLIHPRTGRLHTRFNQTATATGRLSSSDPNLQNIPVRTPLGQRIRRAFIAEEGWLLVALDYSQIEARVLAHLSGDENLIRVFQEGRDIHTETASWMFGVPREAVDPLMRRAAKTINFGVLYGMSAHRLSQELAIPYEEAQAFIERYFQSFPKVRAWIEKTLEEGRRRGYVETLFGRRRYVPDLEARVKSVREAAERMAFNMPVQGTAADLMKLAMVKLFPRLEEMGARMLLQVHDELVLEAPKERAEAVARLAKEVMEGVYPLAVPLEVEVGIGEDWLSAKE
B4: 2F7: rabbit monoclonal dCTP-3P antibody, SEQ ID NO: 43 and 44 (protein)
chain 1: METGLRWLLLVAVLKGVQCQSVEESGGRLVTPGTPLTLTCTVSGFSLSNYAIIWVRQAPGEGLEYIGFISRTGSINYANWAKGRFTISKTSTTVDLKITSPTTEDTATYFCARTDYFANGDIWGPGTLVTVSSGQPKAPSVFPLAPCCGDTPSSTVTLGCLVKGYLPEPVTVTWNSGTLTNGVRTFPSVRQSSGLYSLSSVVSVTSSSQPVTCNVAHPATNTKVDKTVAPSTCSKPMCPPPELPGGPSVFIFPPKPKDTLMISRTPEVTCVVVDVSQDDPEVQFTWYINNEQVRTARPPLREQQFNSTIRVVSTLPIAHQDWLRGKEFKCKVHNKALPAPIEKTISKARGQPLEPKVYTMGPPREELSSRSVSLTCMINGFYPSDISVEWEKNGKAEDNYKTTPTVLDSDGSYFLYSKLSVPTSEWQRGDVFTCSVMHEALHNHYTQKSISRSPGK
chain 2: MDTRVPTQLLGLLLLWLPGARCADVVMTQTPASVSEPVGGTVTIKCQASQSINSWLSWYQQKPGQPPKLLIYAASTLASGVPSRFKGSGSGTQFTLTISDLECADAATYFCQSYDMIVNHGAPFGGGTGVVVSGDPVAPTVLIFPPAADQVATGTVTIVCVANKYFPDVTVTWEVDGTTQTTGIENSKTPQNSADCTYNLSSTLTLTSTQYNSHKEYTCKVTQGTTSVVQSFNRGDC
modifications: dCTP-3P

How the values were obtained:
[1] = test system: 3′ phosphate-extended primer; assay: 3′ phosphate primer detection with antibodies in a microtiter plate (fluorescence); assay type: binding; conditions: for ratio to no primer: intensity primer / no primer; for fluorescence intensity: 5 min binding, wash at 60° C.
Protocol: 3′ phosphate blocked nucleotides were incorporated onto the terminal position of a primer and then reacted with unlabeled or labeled antibodies. After a short reaction time of less than 5 minutes, excess antibodies were washed from the reaction well and bound antibodies detected. In the case of unlabeled antibodies, a secondary fluorescently labeled antibody or nanobody was used to bind to the primary IgG before fluorescence detection. In the case of directly labeled primary antibodies, excess un-bound antibodies were washed away and fluorescence in the reaction well measured with a fluorescence plate reader.
Under some binding and wash conditions some non-specific binding of antibody was occurring on the target. […] The interaction of magnesium with the phosphates of the DNA phosphodiester bonds may be suppressing the ability of the antibodies to react with internal phosphates but still allowing recognition of the terminal phosphate. Specific binding in the presence of magnesium was 10-27 fold higher than without primer.

[2] = test system: 3′-phosphate / 2′-phosphate nucleotides; conditions: cited from earlier work
[3] = no primer (non-specific binding), 20 mM Mg buffer
[4] = no primer (non-specific binding), magnesium free buffer
[5] = primer extended with 3′ phosphate nucleotide, 20 mM Mg buffer
[6] = primer extended with 3′ phosphate nucleotide, magnesium free buffer

| Molecule | ratio to no primer ([1]; 20 mM Mg buffer) | ratio to no primer ([1]; magnesium free buffer) | fluorescence intensity [1, 3] | fluorescence intensity [1, 4] | fluorescence intensity [1, 5] | fluorescence intensity [1, 6] | incorporation of 3′-phosphate nucleotides, in words [2] |
| --- | --- | --- | --- | --- | --- | --- | --- |
| B1 | 20.6 | 1.7 | 13278 | 206733 | 273502 | 345210 | – |
| B2 | 27.1 | 3.0 | 8820 | 88385 | 238771 | 265039 | – |
| B3 | – | – | – | – | – | – | does not incorporate 3′-phosphate nucleotides |
| B4 | 16.2 | 8.8 | 11357 | 19124 | 183669 | 167623 | – |
